How the values were obtained:
[1] = target: microtubules (without MAP7); test: single-molecule TIRF microscopy
[2] = target: microtubules (without MAP7); test: optical trapping
[3] = target: MAP7-decorated microtubules (mammalian MAP7) (UniProt O88735); test: optical trapping

Row | mean dwell time [1] [s] | unbinding rate at zero load [2] [s⁻¹] | increase of the relative binding rate against microtubules without MAP7 [3] [%] | unbinding rate at zero load [3] [s⁻¹] | Substance
1 | 114 |  |  |  | MAP7 (ensconsin, E-MAP-115), mammalian, with N-terminal FLAG and SNAP-tags (from UniProt O88735 1-730) (natural protein)
2 |  | 0.0237 | 10 | 0.0207 | dynein on isolated phagosomes (teams of dynein motors) (complex)

— doi:10.1101/557611
